The data set has as its target HMGA1a, non-phosphorylated (wt) (UniProt P17096 1-107). The data set is described as follows: ITC.

Sequence of HMGA1a, non-phosphorylated (wt) (P17096 whole entry): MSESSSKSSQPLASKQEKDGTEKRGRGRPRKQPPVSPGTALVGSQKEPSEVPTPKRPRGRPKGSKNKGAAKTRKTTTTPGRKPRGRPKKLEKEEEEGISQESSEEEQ

B1: PRD2 element of NFkB promoter (dsDNA)
DNA 1: GGGAAATTCCTC
DNA 2: GAGGAATTTCCC
By Kd is commonly meant the equilibrium constant for the complex coming apart. A low value points to tighter binding. Turning to B1, the Kd is ~0.1 µM.

(Values after paper PMC7145567.)
